The nanobody polyreactivity screen of Harvey et al. (2022)

Assay: yeast display, Sf9 membrane polyspecificity reagent, FACS + sequencing; frameworks hold sequencing errors
In short: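 Sorting gates, low and high (top ~1%), were placed on anti-HA fluorescence to track expression and on streptavidin fluorescence to track reagent binding. A clone's polyreactivity label is taken from the gate it came out of. The reagent was 10% biotinylated, detergent-solubilized Sf9 membrane, applied for 1 hour at 4 °C to galactose-induced yeast display cells.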

| Sequence | polyreactivity (PSR sort gate) |
| --- | --- |
| QVQLVESGGGLVQAGGSLRLSFAASGLIFSYYAMVWYRQAPGKERELVAAISSSGGSTYYADSVKGRFTISRDYAKNTVYLQMNSLKPEDTAVYYCARKLTRRFYQYDYWGQGTQVTVSS | high polyreactivity |
| QVQLVESGGGLVQAGGSLRLSFAASGRIFLRYAMVWYRHAPGKERELVAAISSRGGRTYYADSVKGRFTISRDNAKNTVYLQMNSLKPEDTAVYYCAAEGYYVTPFDYWGQGTQVTVSS | high polyreactivity |
| QVQLVESGGGLVQAGGSLRLSFAASGRIFTYYAMGWYRQAPGKERELVASISRSGGNTYYADSVKGRFTISRDNAKNTVYLQMNSLKPEDTAVYYCAAVYSRLDYWGQGTQVTVSS | high polyreactivity |
| QVQLVESGGGLVQAGGSLRLSFAASGRTFGRYAMGWYRPATGKERELVATISSRGGNTYYADSVKGRFTISRDNAQKTVYLEMNSLKAEDTAVYYCAAQTYKWYDWGQGTQVTVSS | high polyreactivity |
| QVQLVESGGGLVQAGGSLRLSFAASGRTFTWNVMGWYRQAPGKERELVAAITTDDRTYADSVKGRFTISRDNAKNTVYLQMNSLKPEDTAVYYCATVVAWSSRPVGEDYWGQGTQVTVSS | low polyreactivity |
| QVQLVESGGGLVQAGGSLRLSFAASGSIFPVYAMGWYKQAPGKERELVAAITTAGRTYYADSVKGRFTISRDNAKNTVYLQMNSLKPEDTAVYYCNARSRKVLTVDGGYWGQGTQVTVSS | high polyreactivity |
| QVQLVESGGGLVQAGGSLRLSFAASGSIFYYYVMGWYRQAPGKERELVASIRAGGDNTYYADSVKGRFTISRDSAKNTVYLQMNRLKPEDSEVYYCAKSRGRRRLYPHRYGHDYWGQGTQVTVSS | low polyreactivity |
| QVQLVESGGGLVQAGGSLRLSFAASGSTFSRNTMGWYRQAPGKERELVAAISKSGGRTYYADSVKGRFTISRDNAKNTVYLQINSLKPEDSAVYYCNAAVYAYASDYWGQGTQVTVSS | high polyreactivity |
| QVQLVESGGGLVQAGGSLRLSFAASGSTFTPNVMGWYRQAPGKERELVAAINSSGGSTFYADSVKGRFTISRDNANNTVYLQMNSLKPEDTAVYYCAASWHTPTVYDEYYYWGQGTQVNVSS | low polyreactivity |
| QVQLVESGGGLVQAGGSLRLSFAASGSTFYYHAMGWYRQAPGKERELVAAIRSTGSTNYADSVKGRFTISRDNAKNTVYLQMNSLKPEDTAVYYCAARIRRTRGYNYWGQGTQVTVSS | high polyreactivity |
| QVQLVESGGGLVQAGGSLRLSFDASGLIFWGYAMGWYRQAPGKERELVAAISSSCGSTYYADSVKGRFTISRDNAKNTVYLEMNSLQPEDTAVYYCNADYTYYPGYDFWGQGTQVTVSS | low polyreactivity |
| QVQLVESGGGLVQAGGSLRLSGAASGFIFGSYAMGWYRQAPGKERELVAAISRSGGRTYYADSVKGRFTISRDNAKNTVYLQMNSLKPEYTAVYYCNAVGYGVFFRSSDRTKFDYWGQGTQVTVSS | high polyreactivity |
| QVQLVESGGGLVQAGGSLRLSGAASGFIFSYYAMGWYRQAPGKERELVAAITSGGSTNYADSVKGRFTISRDNAKNTVYLQMNSLKPEDTAVYYCNALYHWGYPHEYNYWGQGTQVTVSS | low polyreactivity |
| QVQLVESGGGLVQAGGSLRLSGAASGRIFGTYDMGWYRQAPGKERELVAAINRSAGSTYYADSVKGRITISRDNAKNTVYLQMNSLKPEDTAVYYCAKQPLLFQYLEYDYWGQGTQVTVSS | low polyreactivity |
| QVQLVESGGGLVQAGGSLRLSGAASGRTFGYYAMGWYRQAPGKERELVAAISRGGSTYYADSVKGRFTISRDNAKNTVYLQMNSPKPEDTAVYYCAADYWGYGPEMGYWGQGTQVTVSS | low polyreactivity |
| QVQLVESGGGLVQAGGSLRLSGAASGSTCYYGMGWYRQAPGKYRELVAAISSRGGTPYYADSVKGRFTISRDNAKNTVYLQMTSLKPEDTAVDDCAAPVPYYVPRRNEGDYWGQGTQGTVSS | low polyreactivity |

| Sequence | polyreactivity (PSR sort gate) |
| --- | --- |
| QVQLVESGGGLVQAGGSLRLSSAAAGSTFGRYAMGWYRQAPGKEREFVAAITQGGTNTYYADSVKGRFTISRDNAKNTVYLQMNSLKPEDTAVYYCARVRRYPLRYNYWGQGTQVTVSS | high polyreactivity |
| QVQLVESGGGLVQAGGSLRLSSAASGFIFDFYTMGWYRQAPGKERELVAAITWSGDSTYYADSVKGRFTISRDNAKNTVYLQMNSLKPEDTAVYYCASDLSYNPGYDYWGQGTQVTVSS | low polyreactivity |
| QVQLVESGGGLVQAGGSLRLSSAASGFIFFCYTMGWYRQARGKERELVAAISSTGARTYYADSVKGSFTISRDNAKNTVYLQMNSLKPEDTAFYYCAARLSYQGRGYRFWGQGTQVTVSS | high polyreactivity |
| QVQLVESGGGLVQAGGSLRLSSAASGFIFPAYAMGWYRQAPGKDRELVAAISKSGGRTYYADSVKGRFTISRDNAKNTVYLQMNSLKPEDTAVYYCNKDRYPREQYTWKYAWGYDYWGQGTQVTVSS | high polyreactivity |
| QVQLVESGGGLVQAGGSLRLSSAASGFILNRNAMGWYRQAPGKVRELVAAISKSGGSTYYADSVKGRFTISRDNAKNTVYLQMNRLKPEDTAVYYCAAYTYLGRYEARRDYWGQGTQVTVSS | high polyreactivity |
| QVQLVESGGGLVQAGGSLRLSSAASGFILRWYAMGWYRQAPGKERELVAAISWSGGSTYYADSVKGRFTISRDNAKNTVYLQMNSLKPEDTAVYYCNAVNYRNKYDYWGQGTQVTVSS | high polyreactivity |
| QVQLVESGGGLVQAGGSLRLSSAASGFTFDYYAMGWYRQAPGKERELVAAISTSGGSTYYADSVKGRFTISRDNAKNTVYLQMNSLKPEDTAVYYCNVVFYEYSSVSYDYWGQGTQVTVSS | high polyreactivity |
| QVQLVESGGGLVQAGGSLRLSSAASGFTFKGNALGWYRQAPGKERELVATITQSAGSTYYADSVKGRFTISRDNAKNTVYLQMNSLKPEDTAVYYCNADPITLYYYSWYNYWGQGTQGTVSS | low polyreactivity |
| QVQLVESGGGLVQAGGSLRLSSAASGFTFLYNAMGWYRQAPGKERELVASIRTGTGTYYADSVKGRFTISRDNAKNNVYLQMISLKPEDTAVYYCAADYRYKSQWWYRRFDYWGQGTQVNVSS | high polyreactivity |
| QVQLVESGGGLVQAGGSLRLSSAASGFTFRRYAMGWYRQAPGKERELVAAITNSAGSTYYSDSVKGRFTISRDNAKNTVYLQKNSLKPEDTAVYYCVALRSAGAYDYWGQGTQVTVSS | low polyreactivity |
| QVQLVESGGGLVQAGGSLRLSSAASGFTFYLNALGGYRQAPGKERELVAAISSSGGITYYADSVKGRFTISRDNAKNTVYLQMNSLKPEYTAVYYCAAYWPKYRYEADRDYWGQGTQVTVSS | low polyreactivity |
| QVQLVESGGGLVQAGGSLRLSSAASGFTLIPNGMGWYRQAPGKEREFVAAISGTGGRTSYADSVKGRFTISRDNAKNTVYLQMHSLKPEDTAVYYCNARVLVYSERAYKYYLLYDYWGQGTQVTVSS | high polyreactivity |
| QVQLVESGGGLVQAGGSLRLSSAASGFTLYRNAMGWNRQAPGKEREFVASITRSGGSTSYADSVKGRFTISRDNAKNTVYLQMNSLKPEDTAVYYCAAAYEYYRWPSEYNYWGQGTQVTVSS | low polyreactivity |
| QVQLVESGGGLVQAGGSLRLSSAASGGIFFYNTMGWYRQAPGKERELVAAITTNGDSTYYADSVKGRFTISRDTAKYTVYLQMNSLKPEDTAVYYCAAGRRWARWLFPSRYDYWGQGTQVTVSS | low polyreactivity |
| QVQLVESGGGLVQAGGSLRLSSAASGGTFWIYAMGWYRQAPGKERELVSGITTSGATTYYADSVKGRFTISRDNAKNTVYLQMNRLKPEDTAVYYCAADEYYRYEYWGQGTQVTESS | low polyreactivity |
| QVQLVESGGGLVQAGGSLRLSSAASGIIFAVYAMGWYRQAPGKERELVAAISTSGGRTYYADSVKGRFTISRDNAKNTVYLQMKSLKPEDTAVYYCAAPLRVSYDGMYYWGQGTQVTVSS | high polyreactivity |
